Source: publication doi:10.1101/356592 (bioRxiv, 2018)

B1: His6-tagged Dmc1 (natural protein, Saccharomyces cerevisiae, UniProt P25453 1-334, looked up)
chain: MSVTGTEIDSDTAKNILSVDELQNYGINASDLQKLKSGGIYTVNTVLSTTRRHLCKIKGLSEVKVEKIKEAAGKIIQVGFIPATVQLDIRQRVYSLSTGSKQLDSILGGGIMTMSITEVFGEFRCGKTQMSHTLCVTTQLPREMGGGEGKVAYIDTEGTFRPERIKQIAEGYELDPESCLANVSYARALNSEHQMELVEQLGEELSSGDYRLIVVDSIMANFRVDYCGRGELSERQQKLNQHLFKLNRLAEEFNVAVFLTNQVQSDPGASALFASADGRKPIGGHVLAHASATRILLRKGRGDERVAKLQDSPDMPEKECVYVIGEKGITDSSD

Tests used:
[1] = molecular target: Replication protein A (RPA) (Saccharomyces cerevisiae, UniProt P22336 1-621; P26754 1-273; P26755 1-122); assay: pull-down
His6-tagged Dmc1 = molecular target: B1; assay: co-IP

Chain of Replication protein A (RPA) (P22336 whole entry, chain 1 of 3): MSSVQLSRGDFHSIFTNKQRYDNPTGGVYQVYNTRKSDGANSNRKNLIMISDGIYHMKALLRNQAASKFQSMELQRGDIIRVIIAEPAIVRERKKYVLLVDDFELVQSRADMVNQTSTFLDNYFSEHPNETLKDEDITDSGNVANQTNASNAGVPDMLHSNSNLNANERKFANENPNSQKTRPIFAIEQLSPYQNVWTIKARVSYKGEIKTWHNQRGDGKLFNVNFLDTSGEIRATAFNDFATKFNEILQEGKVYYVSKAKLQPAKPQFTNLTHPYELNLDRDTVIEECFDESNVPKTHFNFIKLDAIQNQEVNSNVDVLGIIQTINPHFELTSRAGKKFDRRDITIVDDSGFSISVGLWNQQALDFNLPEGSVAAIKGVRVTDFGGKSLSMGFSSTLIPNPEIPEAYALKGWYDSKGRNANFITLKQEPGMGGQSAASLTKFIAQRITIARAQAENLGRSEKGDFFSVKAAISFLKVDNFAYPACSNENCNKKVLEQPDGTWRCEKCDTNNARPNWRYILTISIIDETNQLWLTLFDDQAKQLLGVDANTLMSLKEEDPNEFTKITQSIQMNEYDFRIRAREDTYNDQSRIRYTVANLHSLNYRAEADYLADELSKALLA
Chain of Replication protein A (RPA) (P26754 whole entry, chain 2 of 3): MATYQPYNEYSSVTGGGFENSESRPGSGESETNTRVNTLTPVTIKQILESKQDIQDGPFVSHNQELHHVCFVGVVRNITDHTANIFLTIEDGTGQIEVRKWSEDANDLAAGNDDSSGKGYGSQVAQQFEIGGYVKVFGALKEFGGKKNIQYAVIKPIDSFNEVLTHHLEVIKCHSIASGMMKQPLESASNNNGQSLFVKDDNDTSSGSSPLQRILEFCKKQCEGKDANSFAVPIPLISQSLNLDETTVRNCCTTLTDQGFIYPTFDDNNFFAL
Chain of Replication protein A (RPA) (P26755 whole entry, chain 3 of 3): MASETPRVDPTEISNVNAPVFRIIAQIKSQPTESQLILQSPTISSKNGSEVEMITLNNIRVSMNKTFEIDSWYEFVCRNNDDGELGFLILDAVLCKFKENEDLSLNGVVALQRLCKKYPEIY

binding result [1] | binding result (His6-tagged Dmc1) | Binder
binds | – | B1
binds | binds | His6-tagged Mei5-Sae3 heterodimer (complex, Saccharomyces cerevisiae) chain 1: MHNQEEWLDKDKTLVNEEENTCINHSYTKKDTNNYRVGKSGIKDLKKPTNQKEIAIKNRELTKQLTLLRQENNHLQQACKILSENKIIENRKSIEKWRTICEMELSFILNSTLIKINRMGGYKDFLEKEMEAKKRRLEYQIDNGMEDQICEIKESDDFRQLSEVEKQEWESQMNEQLKELEKKKIAELEKLNKVLHDSEGKDFGMAELCTRLKLDYSLIFPQ chain 2: MNYLETQLNKKQKQIQEYESMNGNLIKMFEQLSKEKKNDETPKKISSTYIKELKEYNELRDAGLRLAQIIADEKQCKIKDVFEEIGYSMKD
